Measured values taken from the DeepSol protein solubility set.

Assay: soluble on expression in E. coli; label from the status in PepcDB or PDB records

| Sequence | soluble on expression in E. coli |
| --- | --- |
| MGEEFEKLMKKFENVNKDGEIVEDEDEWEEFFKQEEYVKIPKDRIAVLIGKKGQTKKEIEKRTKTKITIDSETGEVWITSTKETEDPLAVWKARDIVLAIGRGFSPERAFRLLNEGEYLEIINLTDIIIGNEKNALPRVRGRIIGRKGRTRQIIEEMSGASVSVYGKTVAIIGNPIQIEIAKTAIEKLARGSPHGSVYRYLERRKKDLELEGAMYYENL | soluble |
| GSAMAPTNDQLTDLQEAHFVVFESEENSESVMDGFVEHPFYTATLNGQKYVVMKTKDDSYWKDLIVEGKRVTTVSKDPKNNSRTLIFPYIPDKAVYNAIVKVVVANIGYEGQYHVRIINQDINTKDDDTSQ | soluble |
| MAHHHHHHMAGEPYLVYLLRCLAHQSGLTQLSPHFAVPTTEIDSDDGGAVAVVTAGHSANHPSRLFWERCVVVGVRVEPTTKNLLQTGWETQPCSHCVSQDGAAADAHDSPSRRSRLCVLPLLYGGTQCGECGHALSLVPTWTRALYLVLQRRDRSRAAAVAYGEEVHRHLWLGVTIDALLYTSATEQQQQLLVVHAAAGPAAAAPSATLPCAETTKGAFHIICQDERVNRLGLKWGDGTAFSAAANLHDVARRVAPQLQGQAHVKRLLLLVVLYIVYYGSHPAAAGSHRHPLHVLLVGPAKTGKSALLREVAQLIGLEAEVLDSTVVRTGGSGGAAGGSSFSAALPIRRSAVLMAGSGMTASTLVLDQLPSTAGGAAAMAPLLEAMERGHGCGAASGEGDAAAGGPDVHELPSTIIAAAGEESAAAVQLAPYFSLLAAVAPTNSLDDTAIISQDVVAASRARSSHSRATSRSMSRATQLSASSPHHSQRGPSISQSTSHRADPSSLSERLTHEDVCYLVRRAAEPVLLNSVVSHAACYDAFIDKLVDCAGLLEETQPSVCHALPPPSACRGQHRVGLPSAACDSLRAAPLAIDEHLRILCALSRARALLEHAEVLRDAGWTAQMRDEVWALYHGHLVAFADLMQRRSCSSGAMASRDPAEVLRTTSWSSSFFDACGGSTAAPAPAGYPSLSRFSGDAAALGRAWKGRMRAMSSREGLGLWHPQKTPSKKRCRLMFVEALRQRQCLSAQVESAVPPPEVEHVFGLLGGSSAFGDPLDVVISQMQEEGLLLRRPGGWRSL | not soluble |
| MGSDKIHHHHHHMNKKLLNKVMKKLASSNVVISPTVKSSSTSLSMQKKPETEQVQQKLEQYLLSRYHFRFNLLTEQTECCKKDADTPIYKVISQRTLNSLCLEARARHINCWDKDVSRFVNSEQMPDYHPLLSYMNTLPEWDGKDRVTPLAQRISTKDFWVNSFHRWMLGVTAQWSGRMDRCANAVAPMLVSSEQGRCKSTFCELLMPDSLKDYYTDSFELTGQAGCEQKLAFFGLINLDEYDRLSPQKLPLLKNLMQMKKLDFRKSHRSSYSHLPRMASFIGTSNRKALLTDPSGSRRYFFAEVKEKIDCSPLEHKQLFAQLKAELDEGKRYWFSAAEESELKLRNQAYYALPTEAEMILHCFRLPEKGEDFKLYSAVCLFNILLKRYPAAMRGITINKMGRIMNSLGAERMHTTTGNMYKLVALAG | not soluble |
| GNIESIENLQGIRALQQQAPQLLSSGLPNEQQFSLLKQAGVDVVINLMPDSSKDAHPDEGKLVTQAGMDYVYIPVDWQNPKVEDVEAFFAAMDQHKGKDVLVHCLANYRASAFAYLYQLKQGQNPNMAQTMTPWNDELAIYPKWQALLTEVSAKYGH | soluble |
| GSSTVTLPETLLFVSTLDGSLHAVSKRTGSIKWTLKEDPVLQVPTHVEEPAFLPDPNDGSLYTLGSKNNEGLTKLPFTIPELVQASPCRSSDGILYMGKKQDIWYVIDLLTGEKQQTLSSAFADSLSPSTSLLYLGRTEYTITMYDTKTRELRWNATYFDYAASLPEDDVDYKMSHFVSNGDGLVVTVDSESGDVLWIQNYASPVVAFYVWQREGLRKVMHINVAVETLRYLTFMSGEVGRITKWKYPFPKETEAKSKLTPTLYVGKYSTSLYASPSMVHEGVAVVPRGSTLPLLEGPQTDGVTIGDKGESVITPSTDVKFDPGLKSKNKLNYLRNYWLLIGHHETPLSASTKMLERFPNNLPKHRENV | soluble |
| AHHHHHHGSNKRFPFPVGEPDFIQGDEAIARAAILAGCRFYAGYPITPASEIFEAMALYMPLVDGVVIQMEDEIASIAAAIGASWAGAKAMTATSGPGFSLMQENIGYAVMTETPVVIVDVQRSGPSTGQPTLPAQGDIMQAIWGTHGDHSLIVLSPSTVQEAFDFTIRAFNLSEKYRTPVILLTDAEVGHMRERVYIPNPDEIEIINRKLPRNEEEAKLPFGDPHGDGVPPMPIFGKGYRTYVTGLTHDEKGRPRTVDREVHERLIKRIVEKIEKNKKDIFTYETYELEDAEIGVVATGIVARSALRAVKMLREEGIKAGLLKIETIWPFDFELIERIAERVDKLYVPEMNLGQLYHLIKEGANGKAEVKLISKIGGEVHTPMEIFEFIRREFK | soluble |
| VSRAESNRTYSGQPVAERRVARRARFLDSALSVFAEKTYAHSSISDICAHAGLSRRQFYEEFGSREDILLALYDTIQDEARDAVLAANDRAPSRDPRTVAGTVMTAYIESVGTDERRARIIFVEVVGAGPRVEQYRLERRTQWAQLFETVTRTIDGGIVDPPERFEMVSIAFIGAVNDLAHHWSTASPRPSPSVLVDVLSTMLIALVTDQT | not soluble |
| MGSDKIHHHHHHMKSYIIVGAGILGASTAYHLAKTGARVTVIDRKEPGQATDAAAGIVCPWLSQRRNQDWYQLAKGGARYYKDLIHQLEKDGESDTGYKRVGAISIHTDASKLDKMEERAYKRREDAPEIGDITRLSASETKKLFPILADGYESVHISGAARVNGRALCRSLLSAAEKRGATVIKGNASLLFENGTVTGVQTDTKQFAADAVIVTAGAWANEILKPLGIHFQVSFQKAQIMHFEMTDADTGSWPVVMPPSDQYILSFDNGRIVAGATHENDAGLDDLRVTAGGQHEVLSKALAVAPGLADAAAVETRVGFRPFTPGFLPVVGAVPNVQGLYAANGLGASGLTMGPFLGAELAKLVLGKQTELDLSPYDPAGALA | not soluble |
| MATKARVMYDFAAEPGNNELTVTEGEIITVTNPNVGGGWLEGKNNKGEQGLVPTDYVEILPNDGKDPFSC | soluble |
| MGSDKIHHHHHHMATENPPIYMVGGSKGGVGKSFVTLALVDYLRRMEVNVVLVETDTSNPDVMKAVHDEIECGSCDLDDVSGWIDFVNFCDLHPDATVVVNTAARSQAGVAQYGGTLASTLDELARRLVVLWVINRQRDSLELLLRFGATFPNAITHVVRNGYFGSPDKFTLYRDSQLRNAVEAQGQSLDFPDLADRVADELRSQRLSVSKAAEMMHMGERAELLRWRAVCGTMFARVTPHA | not soluble |
| MSLRYIVALTGGIGSGKSTVANAFADLGINVIDADIIARQVVEPGAPALHAIADHFGANMIAADGTLQRRALRERIFANPEEKNWLNALLHPLIQQETQHQIQQATSPYVLWVVPLLVENSLYKKANRVLVVDVSPETQLKRTMQRDDVTREHVEQILAAQATREARLAVADDVIDNNGAPDAIASDVARLHAHYLQLASQFVSQEKPEGGSHHHHHH | soluble |
| FGLKNNPSSSRPEGLLFYEYQQAKPKQQTAHFALDQMIYEINQSFGYEIIQRAKKLAAS | not soluble |
| MGGSHHHHHHGMASALTDQTYCDRLVQDTPFLTGHGRLSEQQVDRIILQLNRYYPQILTNKEAEKFRNPKASLRVRLCDLLSHLQRSGERDCQEFYRALYIHAQPLHSRLPSRHALQNSDCTELDSGSQSGELSNRGPMSFLAGLGLAVGLALLLYCYPPDPKGLPGTRRVLGFSPVIIDRHVSRYLLAFLADDLGGL | not soluble |
| ITLKYNYTVTLKDDGLYDGVFYDHYNDQLVTKISYNHETRHGNVNFRADWFNISRSPHTPGNDYNFNFWYSLMKETLEEINKNDSTKTTSLSLITGCYETGLLFGSYGYVETANGPLARYHTGDKRFTKMTHKGFPKVGMLTVKNTLWKDVKAYLGGFEYMGCSLAILDYQKMAKGKIPKDTTPTVKVTGNELEDGNMTLECTVNSFYPPDVITKWIESEHFKGEYKYVNGRYYPEWGRKSNYEPGEPGFPWNIKKDKDANTYSLTDLVRTTSKMSSQPVCVVFHDTLEAQVYTCSEGCNGELYDHLYRKTEEGEGGSHHHHHH | soluble |
| MGSDKIHHHHHHMRRKDATWILTAQCPSRLGTVDVVTRFLKECRCYITEQQSFDDRHGERFFIRTAFQPEETDFDADTFQAAFAARAAEFDMVFELTAPEARMPVVIMVSKADHCLNDLLYRYRTGQLPVTIRAVISNHPDLEPLVAWHDLPYYHLPITPETKAEQEAEVWRVIESTGAELVILARYMQVLSSELCEKLTGKAINIHHSLLPGFKGAKPYHQAFEKGVKLVGATAHYINDDLDEGPIITQGVEPVSHADDPEDLVAKGRDIECLTLARAVSLHLERRVFLHARRTVVFAR | not soluble |
| MGSDKIHHHHHHMTIDLTPYLPSQGPKYLAIARALAEAIRQGELTPGTRLPPHRCLADALAVSVQTVSRAYAQAEKMGLVQARVGSGTWINTLDDSQEAEYLRSADLPTEGAPVDLSIAHPVCPPGHHLRFRETLREVADSAHPDAIDACRPIAGLAHQRERASHWLQETLGVPGTPDDRVLCNGAAHGVMLAIATLVQHGDVVLTEALTDHGLIALSRTLGLQLRGVAIDEQGVIPEALDAACRRYHPRAVCLTPTQHNPTGATMDADRRDAIAEVLARHGTWLIEDDTHALLEPPGLTPLTARLPRQSFHVTSLTKATVPGLRAGYLSVPRGQLHHTLPRLRATSWMATPLIFEIADRWLADGSVEALAEEQRQLLAERQQLTRSRLQGHVMASRPTGLHVWLALPRAWRAEELQQQALREGLAIATAQPFMVGQGAPPQRVRLSLGAENDLERFDQGLTILARLLGEAPPPMLQNV | not soluble |
| MSLNILIIGPSWVGDMMMSHSLYQQLKIQYPNCNIDVMAPNWCKPLLARMPEVRKAIEMPLGHGAFELGTRYRLGKSLREQYDMAIVLPNSLKSAFIPFFAKIVHRRGWKGESRYILLNDLRANKKDYPMMVQRYVALAFEKDVIPKADDIPVLKPYLTVEPAQQAETLKKFEKQTALLGERPIIGFCPGAEFGPAKRWPHYHYAKLAEMLITQGYAVALFGSAKDEPVGEEIRQALPEELREFCVNLAGKTNLNEAVDLIANCTAVVTNDSGLMHIAAAVNRPLIALYGPTSPQYTPPLSDKATIIRLIEGELIKVRKGDKEGGYHQSLIDITPEMALEKLNELLAKEGGSHHHHHH | soluble |
| MGSDKIHHHHHHMNQHIKGKHLSFEERVIIQLRLKDGYSLRAIARELNCSPSTISYEVKRGTVELYGKVKRYKATQGHDAYQAHRKNCGRKSDFLRKTQFMRYVHKHFFKDGWSLDVCSNRATAVGAFSSRDVVCTKTLYNYVDQGLLDIHNYDLPEKLKRNTKLHRIRKNKKKLGRSIEERPKEINKRNEFGHWECDLVLGHKCTDDEVLLALSERMSREFLILRIPDKTSVSVMQAFKELQRQYSEHWNDIFKTITTDNGSEFADLSNLEKASNTLVYYAHPYTSCDKGTVERHNGLIRRFIPKEEAIANYSLQDIINIETWCNSLPRKILAYHTPDEIFERELDLIYQAA | not soluble |
| MGSDKIHHHHHHMMELRYNPLTDEWVIVSAATQKRPVQPSKTECPICVGGLELPEEYDLVTFENRYPSLKKDPPPVNWKEKGPFRKEESRGVCEVVVYTSDHNTALPGMPLKQIEKLVEMWVDRTRDLSQHDFVKYIFIFENRGKEVGASLPHPHGQIYAFPFLPKRIEVKIGAMRKWYEEKRKCPICEVLESEGEERKVYETEHFLALVPFYARFPYEVHIYPKRHVSTLLEFSKEEKKEFAKVLKVVTAKYDKLFDQEFPYMMMFFQAPFNEEDVSHFFHFHVEFNPPKRDRDKLKWMASVETGTWAFINPVVPEEAARQLRETEVEI | not soluble |
